From patent publication US20180112005A1 (published 2018) come the findings set out here.

The target of test [1] is T1, hFLAG-EGF34+NRR-His6 (101V), the human Notch1 NRR immunogen (human Notch1 V1307-Q1733) (human, UniProt P46531 1307-1733).
T1 construct: Secreted from Sf-9 cells; also called hNotch1 NRR; human NRR1
In words: competitive phage-binding ELISA; phage-displayed Fab pre-mixed with serial dilutions of soluble NRR1, then captured on NRR1-coated plate. As to the method:
(§1) To identify the phage antibodies that bound to both human and murine Notch1 NRR, all unique clones were tested for binding to human and murine Notch1 by ELISA. The affinities of phage antibodies were ranked using single spot competition ELISA as described below in this Example. The phage antibody IC50 values were further determined using competitive phage-binding ELISA essentially described in Lee, C. V., et al. (2004) J Mol Biol 340, 1073-93. Briefly, NUNC 96 well Maxisorp immunoplates were coated overnight at 4° C. with 1 μg/ml human NRR1 or murine NRR1, and were blocked for 1 hour at room temperature with blocking buffer PBST (PBS and 1% BSA and 0.05% Tween 20). Phage was mixed with serial dilution of human or murine NRR1 at room temperature for 1 hour before the mixture was added to human and murine NRR1 coated plate. Bound phage were detected with anti-M13 HRP conjugates, developed with TMB substrate for approximately 5 minutes, quenched with 1M H₃PO₄, and read spectrophotometrically at 450 nm.
(§2) In comparison to the OD_{450 nm} reduction (%) of the well of parental phage (100%), clones that had the OD_{450 nm} reduction (%) lower than 50% were picked for sequence analysis. Unique clones were selected for phage preparation to determine binding affinity (phage IC50) by comparison with parental clones (Table 4).

Test [2] concerns the target T2, mFLAG-EGF34+NRR-His6, the murine Notch1 NRR immunogen (mouse Notch1 V1307-Q1723) (mouse, UniProt Q01705 1307-1723).
T2 construct: N-terminal FLAG tag and C-terminal His tag, expressed in 293-F cells; also called mNotch1 NRR; mouse Notch1 NRR
The description is as above. Here is the method:
as §1, §2

Test [3] deals with T1, hFLAG-EGF34+NRR-His6 (101V), the human …. In words: SPR (BIAcore-3000), IgG captured on rabbit anti-human IgG, NRR1-ECD protein injected 3.9-500 nM, 25 C, 1:1 Langmuir. As to the method:
(§3) To further characterize the binding affinity and binding kinetics of the anti-Notch1 NRR Mabs, surface plasmon resonance (SRP) measurement with a BIAcore™-3000 was used (BIAcore, Inc., Piscataway, N.J.). Briefly, carboxymethylated dextran biosensor chips (CM5, BIAcore Inc.) were activated with N-ethyl-N′-(3-dimethylaminopropyl)-carbodiimide hydrochloride (EDC) and N-hydroxysuccinimide (NHS) according to the supplier's instructions. Rabbit anti human antibody (Pierce) was diluted with 10 mM sodium acetate, pH 4.8, into 20 μg/ml before injection at a flow rate of 5 μl/minute to achieve approximately 3000 response units (RU) of coupled antibody. Next, 1M ethanolamine was injected to block unreacted groups. Anti-NRR1 mab (formatted as a full-length IgG) was captured by rabbit anti-human IgG coated on the chips to achieve approximately 200 response units (RU). For kinetics measurements, two-fold serial dilutions of human NRR1-ECD or murine NRR1-ECD proteins (3.9 nM to 500 nM) were injected in PBT buffer (PBS with 0.05% Tween 20) at 25° C. with a flow rate of 30 μl/min. Association rates (kₒₙ) and dissociation rates (koff) were calculated using a simple one-to-one Langmuir binding model (BIAcore Evaluation Software version 3.2). The equilibrium dissociation constant (KD) was calculated as the ratio koff/kₒₙ.
(§4) “NA” signifies that the measurement was not performed.

In test [4] the target is T2, mFLAG-EGF34+NRR-His6, the murine Notch1 …. The test is described as above. As to the method: as §3, §4
Test [5] addresses human Notch1 expressed on NIH-3T3 cells (human, UniProt P46531 19-2555). In words: cell-based or functional assay.
In another test the target is T3, human Notch2 NRR (human, UniProt Q04721 1425-1677).
T3 construct: domain: NRR; It is split here into the two species; also called human NRR2
T3 sequence (looked up): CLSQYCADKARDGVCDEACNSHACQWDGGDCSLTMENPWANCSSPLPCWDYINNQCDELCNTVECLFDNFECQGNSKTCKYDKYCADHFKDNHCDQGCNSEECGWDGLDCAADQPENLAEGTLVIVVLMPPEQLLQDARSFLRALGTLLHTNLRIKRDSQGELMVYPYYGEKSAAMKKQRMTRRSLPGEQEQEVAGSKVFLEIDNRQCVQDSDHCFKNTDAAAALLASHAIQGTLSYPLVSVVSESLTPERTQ
The test is described as follows: cross-reactivity test of the IgG (Table 3; method not detailed).

The next test deals with T4, murine Notch2 NRR (mouse, UniProt O35516 1425-1679).
T4 construct: domain: NRR; It is split here into the two species; also called mouse NRR2
T4 sequence (looked up): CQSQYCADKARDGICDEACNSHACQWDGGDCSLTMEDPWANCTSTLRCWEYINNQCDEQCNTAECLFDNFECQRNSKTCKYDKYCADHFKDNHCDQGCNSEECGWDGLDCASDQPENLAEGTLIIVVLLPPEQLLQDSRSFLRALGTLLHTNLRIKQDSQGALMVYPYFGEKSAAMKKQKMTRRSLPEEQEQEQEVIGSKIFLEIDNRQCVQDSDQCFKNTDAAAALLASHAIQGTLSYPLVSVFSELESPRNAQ
The description is as above.

A further test addresses T5, human Notch3 NRR (human, UniProt Q9UM47 1378-1643, limits assumed).
T5 construct: domain: NRR; It is split here into the two species; also called human NRR3
The description is as above.

In another test the target is T6, murine Notch3 NRR (mouse, UniProt Q61982 1379-1643, limits assumed).
T6 construct: domain: NRR; It is split here into the two species; also called mouse NRR3
T6 sequence (Q61982 1379-1643 limits assumed): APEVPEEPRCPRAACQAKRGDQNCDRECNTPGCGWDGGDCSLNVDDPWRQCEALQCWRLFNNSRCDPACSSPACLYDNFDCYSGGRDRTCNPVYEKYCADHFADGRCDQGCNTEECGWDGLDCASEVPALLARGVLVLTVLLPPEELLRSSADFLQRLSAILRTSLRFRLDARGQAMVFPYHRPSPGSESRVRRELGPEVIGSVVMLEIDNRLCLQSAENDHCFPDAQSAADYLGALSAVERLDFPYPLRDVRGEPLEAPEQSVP
The description is as above.

The target in a further test is T7, human Notch4 NRR (human, UniProt Q99466 1170-1447, limits assumed).
T7 construct: domain: NRR; It is split here into the two species; also called human NRR4
T7 sequence (looked up): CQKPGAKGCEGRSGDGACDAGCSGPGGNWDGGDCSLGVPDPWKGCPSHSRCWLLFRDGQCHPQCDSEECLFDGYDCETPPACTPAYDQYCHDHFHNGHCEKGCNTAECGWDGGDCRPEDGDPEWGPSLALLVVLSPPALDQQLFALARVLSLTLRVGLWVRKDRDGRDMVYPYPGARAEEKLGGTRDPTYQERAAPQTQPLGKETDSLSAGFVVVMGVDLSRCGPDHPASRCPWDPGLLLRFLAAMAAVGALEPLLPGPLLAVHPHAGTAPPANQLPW
The test is described as above.

The next test addresses T8, murine Notch4 NRR (mouse, UniProt P31695 1166-1443, limits assumed).
T8 construct: domain: NRR; It is split here into the two species; also called mouse NRR4
T8 sequence (looked up): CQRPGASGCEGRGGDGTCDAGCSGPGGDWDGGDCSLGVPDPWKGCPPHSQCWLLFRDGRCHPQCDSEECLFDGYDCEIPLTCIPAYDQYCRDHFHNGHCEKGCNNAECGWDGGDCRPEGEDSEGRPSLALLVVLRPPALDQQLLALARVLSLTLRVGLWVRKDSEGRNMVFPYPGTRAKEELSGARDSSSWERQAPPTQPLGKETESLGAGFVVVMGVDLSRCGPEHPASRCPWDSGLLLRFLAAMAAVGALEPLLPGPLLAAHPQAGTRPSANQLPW
The test is described as above.

T2 sequence (Q01705 other isoform, or with tags, fused parts or gaps): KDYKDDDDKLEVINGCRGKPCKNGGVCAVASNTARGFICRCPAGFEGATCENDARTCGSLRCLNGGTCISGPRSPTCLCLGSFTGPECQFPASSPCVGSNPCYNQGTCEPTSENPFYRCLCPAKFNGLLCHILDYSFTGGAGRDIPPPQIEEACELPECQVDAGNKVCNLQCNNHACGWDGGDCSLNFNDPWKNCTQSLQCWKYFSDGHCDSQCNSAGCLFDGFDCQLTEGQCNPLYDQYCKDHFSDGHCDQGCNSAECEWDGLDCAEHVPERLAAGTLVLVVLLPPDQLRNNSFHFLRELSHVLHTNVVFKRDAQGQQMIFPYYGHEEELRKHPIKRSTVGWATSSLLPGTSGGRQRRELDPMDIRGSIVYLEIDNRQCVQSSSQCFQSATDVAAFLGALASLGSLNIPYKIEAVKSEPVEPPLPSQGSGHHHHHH
T5 sequence (Q9UM47 1378-1643 limits assumed): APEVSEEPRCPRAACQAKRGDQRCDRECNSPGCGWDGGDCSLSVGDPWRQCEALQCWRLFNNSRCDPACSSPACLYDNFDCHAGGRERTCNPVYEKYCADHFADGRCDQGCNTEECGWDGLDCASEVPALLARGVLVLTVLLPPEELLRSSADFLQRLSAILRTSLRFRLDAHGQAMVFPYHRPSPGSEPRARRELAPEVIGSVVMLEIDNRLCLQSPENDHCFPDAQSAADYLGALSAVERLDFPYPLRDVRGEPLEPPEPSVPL

B1: Antibody A-1, phage-displayed Fab clone (Fab, V domains shown)
VH: EVQLVESGGGLVQPGGSLRLSCAASGFTFSSYWIHWVRQAPGKGLEWVARINPPNGSAHYADSVKGRFTISADTSKNTAYLQMNSLRAEDTAVYYCARGSGFRWVMDYWGQGTLVTVSS
VL: DIQMTQSPSSLSASVGDRVTITCRASQDVSTAVAWYQQKPGKAPKLLIYSASFLYSGVPSRFSGSGSGTDFTLTISSLQPEDFATYYCQQSYTTPATFGQGTKVEIKR
In the case of B1, the half-maximal inhibitory concentration (IC50) (as a rule, the concentration that inhibits the measured activity by half) in test [1] stood at 0.8 nM; in test [2] it was 0.6 nM.

B2: Antibody A-1 (antibody, IgG1, V domains shown)
VH: EVQLVESGGGLVQPGGSLRLSCAASGFTFSSYWIHWVRQAPGKGLEWVARINPPNGSAHYADSVKGRFTISADTSKNTAYLQMNSLRAEDTAVYYCARGSGFRWVMDYWGQGTLVTVSS
VL: DIQMTQSPSSLSASVGDRVTITCRASQDVSTAVAWYQQKPGKAPKLLIYSASFLYSGVPSRFSGSGSGTDFTLTISSLQPEDFATYYCQQSYTTPATFGQGTKVEIKR
notes: also called Antibody A-1-hIgG1
As to B2, in [3], the Kd (as a rule, a measure of binding affinity in units of concentration) is 3.43 nM; the koff (as a rule, a measure of how fast the partners let go of each other) came out at 0.00023 s⁻¹; the association rate constant (kon) (commonly a measure of how fast the partners come together) came to 67000 M⁻¹ s⁻¹. Besides, in test [4], binding was put at a Kd of 3.88 nM, the off-rate constant (koff) came out at 0.00033 s⁻¹ and the kon stood at 85000 M⁻¹ s⁻¹.

B3: Antibody A-2, phage-displayed Fab clone (Fab, V domains shown)
VH: EVQLVESGGGLVQPGGSLRLSCAASGFTFSSYWIHWVRQAPGKGLEWVARINPPNRSNQYADSVKGRFTISADTSKNTAYLQMNSLRAEDTAVYYCARGSGFRWVMDYWGQGTLVTVSS
VL: DIQMTQSPSSLSASVGDRVTITCRASQDVSTAVAWYQQKPGKAPKLLIYSASFLYSGVPSRFSGSGSGTDFTLTISSLQPEDFATYYCQQFYTTPSTFGQGTKVEIKR
As to B3, the half-inhibitory concentration (IC50) in test [1] and in test [2] was 0.5 nM in each case.

B4: Antibody A-3, phage-displayed Fab clone (Fab, V domains shown)
VH: EVQLVESGGGLVQPGGSLRLSCAASGFTFSSYWIHWVRQAPGKGLEWVARINPANGSTRYADSVKGRFTISADTSKNTAYLQMNSLRAEDTAVYYCARGSGFRWVMDYWGQGTLVTVSS
VL: DIQMTQSPSSLSASVGDRVTITCRASQDVSTAVAWYQQKPGKAPKLLIYSASFLYSGVPSRFSGSGSGTDFTLTISSLQPEDFATYYCQQSFSTPATFGQGTKVEIKR
B4: the half-maximal inhibitory concentration (IC50) in test [1] was 0.5 nM; in test [2], 2.5 nM.

B5: Antibody A-2 (antibody, IgG1, V domains shown)
VH: EVQLVESGGGLVQPGGSLRLSCAASGFTFSSYWIHWVRQAPGKGLEWVARINPPNRSNQYADSVKGRFTISADTSKNTAYLQMNSLRAEDTAVYYCARGSGFRWVMDYWGQGTLVTVSS
VL: DIQMTQSPSSLSASVGDRVTITCRASQDVSTAVAWYQQKPGKAPKLLIYSASFLYSGVPSRFSGSGSGTDFTLTISSLQPEDFATYYCQQFYTTPSTFGQGTKVEIKR
notes: also called Antibody A-2-hIgG1
In test [3], B5 returned a Kd of 2.53 nM, a koff of 0.00022 s⁻¹ and a kon of 87000 M⁻¹ s⁻¹. In addition, in test [4], the Kd amounted to 3.09 nM, the koff amounted to 0.00034 s⁻¹ and the kon is 110000 M⁻¹ s⁻¹.

B6: Antibody A (antibody, IgG1, V domains shown)
VH: EVQLVESGGGLVQPGGSLRLSCAASGFTFSSYWIHWVRQAPGKGLEWVARINPSNGSTNYADSVKGRFTISADTSKNTAYLQMNSLRAEDTAVYYCARGSGFRWVMDYWGQGTLVTVSS
VL: DIQMTQSPSSLSASVGDRVTITCRASQDVSTAVAWYQQKPGKAPKLLIYSASFLYSGVPSRFSGSGSGTDFTLTISSLQPEDFATYYCQQSYTTPPTFGQGTKVEIKR
notes: also called anti-Notch1 NRR Antibody A; Antibody A-hIgG1
In the case of B6, in test [5], the “Co-culture blocking, IC50” value was around 0.1 µg/mL. Besides, the binding result with human Notch2 NRR, with murine Notch2 NRR, in the test with human Notch3 NRR, with murine Notch3 NRR, with human Notch4 NRR and in the test with murine Notch4 NRR was “no binding” throughout. In addition, the Kd is 134 nM in [3] and 231 nM in test [4]. Also, the figures for the off-rate constant (koff) in test [3] and in test [4] were 0.011 s⁻¹ and 0.021 s⁻¹, respectively. The on-rate (kon) in test [3] worked out at 82000 M⁻¹ s⁻¹; in [4] it was 91000 M⁻¹ s⁻¹.

B7: Antibody A-3 (antibody, V domains shown)
VH: EVQLVESGGGLVQPGGSLRLSCAASGFTFSSYWIHWVRQAPGKGLEWVARINPANGSTRYADSVKGRFTISADTSKNTAYLQMNSLRAEDTAVYYCARGSGFRWVMDYWGQGTLVTVSS
VL: DIQMTQSPSSLSASVGDRVTITCRASQDVSTAVAWYQQKPGKAPKLLIYSASFLYSGVPSRFSGSGSGTDFTLTISSLQPEDFATYYCQQSFSTPATFGQGTKVEIKR
In [3], B7 had a dissociation constant Kd of 5.88 nM, a koff of 0.0004 s⁻¹ and a kon of 68000 M⁻¹ s⁻¹. In test [4], this molecule had a Kd of 13 nM, a koff of 0.0012 s⁻¹ and a kon of 92000 M⁻¹ s⁻¹.
